Target: MSLN (UniProt Q13421)
Experiment: BLI

MSLN, sequence (Q13421 other isoform, or with tags, fused parts or gaps limits assumed): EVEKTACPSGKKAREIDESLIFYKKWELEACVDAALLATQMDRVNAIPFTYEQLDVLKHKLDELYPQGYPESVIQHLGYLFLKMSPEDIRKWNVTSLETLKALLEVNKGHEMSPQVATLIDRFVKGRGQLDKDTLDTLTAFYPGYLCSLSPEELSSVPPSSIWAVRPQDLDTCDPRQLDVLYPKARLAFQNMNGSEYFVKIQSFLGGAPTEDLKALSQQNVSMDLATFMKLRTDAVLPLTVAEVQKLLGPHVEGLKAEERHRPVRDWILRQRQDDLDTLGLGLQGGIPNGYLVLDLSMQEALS

B1: nanobody NM5 (VHH)
VHH: DVQLQESGGGLVQAGGSLRLSCVGAGVSFSPYGIGWWRQAQGNQREWVASIYRSGSTNYEDFAKDRFTISRDNTKNTAYLQMNSLKPEDTAVYYCQILGTSYRGQGTQVTVSS
**Q.** For B1, which Kd is on record?
**A.** 11.4 nM
